The record followed here is patent US9107936B2, “Antagonists of GRASP55 for use as a medicament” (Institut National de la Sante et de la Recherche Medicale …, priority 2012, dated 2015).

Data set [1] has as its system B16F10 cells. In words: ELISA of soluble JAM-C in cell culture supernatant. The class given is cell-based, mouse. The following applies: B16F10 control 0.27±0.02; mean±SEM. The procedure: An ELISA was designed to determine the concentration of soluble JAM-C in cell culture supernatants. Ninety-six-well plates (Nalge Nunc International) were coated overnight at room temperature with rat anti-mouse JAM-C antibody H36 (home-made). Plates were washed and blocked with buffer containing PBS and 2% of bovine albumin for 2 hours. Cell culture supernatants from different cell conditions were incubated during 3 hours. Plates were washed, and polyclonal rabbit anti-JAM-C (501) was added for 1 hour at room temperature. After three washes, donkey anti-rabbit HRP antibody was put on. To reveal the final read out, the substrate of HRP, tetramethylbenzidine ([…]) is adjoined. The absorbance lecture (D.O at 450 nm) is carried out on a ELISA POLARstar reader.
(In general: In an ELISA, binding on a coated surface is turned into a signal by an enzyme label.)

Data set [2] deals with B16F10 cells. In words: wound healing assay (cell migration). The class given is cell-based, mouse. Conditions: B16F10 stably transfected with shRNA; shctrl 249±5; Mean+/−SEM. The procedure: Transient transfections were performed on a 50% confluent monolayer of B16F10 cells with either 10 nM of siRNA or 5 μg of shRNA against luciferase used as a control or shRNA against GRASP55 in Lipofectamine RNAimax (Invitrogen). Transfection efficiency was monitored at 24 h by qRT-PCR and Western blots for the expression of GRASP55 transcript or protein. For selection of stable transfectants, cells were grown in DMEM containing 10 μg/ml of puromycine (Sigma Aldrich) starting 48 h after transfection.
For in vitro wound healing assays, 80% confluent monolayers of wild-type B16F10 cells or B16F10 cells transfected with various siRNA or shRNA were grown in both chambers of Ibidi culture inserts with defined cell free gaps. Cells were subjected to serum starvation for 24 h, before wounds were created by removing Ibidi culture inserts that define cell gaps of 400 μm. The wound healing was carried out for 8 h in complete DMEM medium and was recorded at various times after wounding. Analysis of wound closure was performed using Metamorph software and is expressed as mean speed per minute.

Another data set addresses T1, JAM-B (Mus musculus, UniProt Q9JI59).
T1 construct: amino-acids 258 to 298 of murine JAM-B; expressed in transfected cells; host or cells: AH109 yeast strain
T1 sequence (Q9JI59 258-298): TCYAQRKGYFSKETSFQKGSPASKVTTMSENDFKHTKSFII
Put plainly: yeast two hybrid interaction of Grasp55 constructs with JAM-B. The arrangement: key: Symbols “+++” and “−” indicates the growth of yeast on selective media as shown in the FIGURE 13; Symbols “+++” and “−” indicates the growth of yeast on selective media as shown in the FIGURE 13. The class given is binding, murine. The source says:
(§1) The different GRASP55 constructs were cloned into pGBT9 GW vector (Ga14 DNA-binding domain fusion vector, Trp) as well in the pACT2 GW vector (Gal4 DNA-activation domain fusion vector, Leu) using the Gateway technology (Invitrogen). Plasmids were then co-transformed in AH109 yeast strain (/MATa, trp1-901, leu2-3, 112, ura3-52, his3-200, gal4/A, /gal80/A, /LYS2::GAL1//UAS//-GAL1//TATA//-HIS3, GAL2//UAS//-GAL2//TATA//-ADE2, URA3::MEL1//UAS//-MEL1//TATA//-lacZ, MEL1/) in accordance with the previously described transformation protocol (Chien et al. 1991. Proc Natl Acad Sci USA. 88:9578-82). Following co-transformation with the two vectors containing the different constructs (as well as the empty vector to test self activation), yeasts were plated onto Synthetic Complete (SC) medium minus Leucine (−L), minus Tryptophan (−W), minus Histidine (−H) and incubated at 30° C. for 4 to 5 days. All yeast media were prepared as previously described.
(§2) In examples 2, the inventors have previously shown that interaction between Grasp55 and C-terminal part of JAM-C requires the peptidic sequence between residues 1 to 160 of Grasp55 (PDZI+II) but cannot occur with residues 1 to 79 of Grasp55 (PDZI) by yeast two hybrid and ELISA assay (FIGS. 2 and 8). In the present example, the interaction sites between JAMs or metalloproteinases involved in JAM regulation and Grasp55 have been mapped using new constructs. To this end, yeast two-hybrid and GST fusion proteins encompassing residues 1 to 107, 108 to 208, and 1 to 208 corresponding respectively to the PDZI′, PDZII′ and PDZI′+II′ constructs have been generated. The former PDZII construct (residues 80 to 160) have also been used to test interaction with the C-terminal sequences of ADAM 10 (of sequence SEQ ID NO: 41) and ADAM 17 (of sequence SEQ ID NO: 42) known to regulate JAM-A and JAM-C release (Table 1). GST fusion proteins were produced and yeast two-hybrid assay was performed as previously described in example 1.

The target in another data set is T2, JAM-A ΔPDZbm (Mus musculus, UniProt O88792, R268T).
T2 construct: amino-acids 260 to 299 of murine JAM-A; expressed in transfected cells; host or cells: AH109 yeast strain
T2 sequence (O88792 260-297 R268T): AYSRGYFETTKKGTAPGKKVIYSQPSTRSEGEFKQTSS
In words: yeast two hybrid interaction of Grasp55 constructs with JAM-A ΔPDZbm. The class given is binding, murine. Set-up: key: Symbols “+++” and “−” indicates the growth of yeast on selective media as shown in the FIGURE 13; Symbols “+++” and “−” indicates the growth of yeast on selective media as shown in the FIGURE 13.
Text: as §1, §2

Another data set addresses T3, JAM-C ΔPDZbm (Mus musculus, UniProt Q9D8B7).
T3 construct: amino-acids 263 to 310 of murine JAM-C; expressed in transfected cells; host or cells: AH109 yeast strain
T3 sequence (Q9D8B7 263-307 limits assumed): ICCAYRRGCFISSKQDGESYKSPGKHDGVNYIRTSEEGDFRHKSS
Put plainly: yeast two hybrid interaction of Grasp55 constructs with JAM-C ΔPDZbm. The class given is binding, murine. Set-up: key: Symbols “+++” and “−” indicates the growth of yeast on selective media as shown in the FIGURE 13; Symbols “+++” and “−” indicates the growth of yeast on selective media as shown in the FIGURE 13.
Text: as §1, §2

Another data set deals with T4, JAM-A (Mus musculus, UniProt O88792, R268T).
T4 construct: amino-acids 260 to 299 of murine JAM-A; expressed in transfected cells; host or cells: AH109 yeast strain
T4 sequence (O88792 260-300 R268T): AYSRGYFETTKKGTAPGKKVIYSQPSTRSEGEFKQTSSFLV
Put plainly: yeast two hybrid interaction of Grasp55 constructs with JAM-A. Set-up: key: Symbols “+++” and “−” indicates the growth of yeast on selective media as shown in the FIGURE 13; Symbols “+++” and “−” indicates the growth of yeast on selective media as shown in the FIGURE 13. The class given is binding, murine.
Text: as §1, §2

The next data set deals with T5, JAM-B ΔPDZbm (Mus musculus, UniProt Q9JI59).
T5 construct: amino-acids 258 to 298 of murine JAM-B; expressed in transfected cells; host or cells: AH109 yeast strain
T5 sequence (Q9JI59 258-295 limits assumed): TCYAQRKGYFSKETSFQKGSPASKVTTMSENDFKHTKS
Put plainly: yeast two hybrid interaction of Grasp55 constructs with JAM-B ΔPDZbm. The class given is binding, murine. Set-up: key: Symbols “+++” and “−” indicates the growth of yeast on selective media as shown in the FIGURE 13; Symbols “+++” and “−” indicates the growth of yeast on selective media as shown in the FIGURE 13.
Text: as §1, §2

For another data set, the target named is T6, ADAM10 (Mus musculus, UniProt O35598, DEL741-741).
T6 construct: expressed in transfected cells; host or cells: AH109 yeast strain
T6 sequence (O35598 with tags, fused parts or gaps DEL741-741): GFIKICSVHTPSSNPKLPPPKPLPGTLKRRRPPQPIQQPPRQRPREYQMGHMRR
In words: yeast two hybrid interaction of Grasp55 constructs with ADAM10 C-terminal sequence. The class given is binding, murine. The arrangement: key: Symbols “+++” and “−” indicates the growth of yeast on selective media as shown in the FIGURE 13; Symbols “+++” and “−” indicates the growth of yeast on selective media as shown in the FIGURE 13.
Text: as §1, §2

The next data set concerns the target T7, JAM-C (Mus musculus, UniProt Q9D8B7).
T7 construct: amino-acids 263 to 310 of murine JAM-C; expressed in transfected cells; host or cells: AH109 yeast strain
T7 sequence (Q9D8B7 263-310): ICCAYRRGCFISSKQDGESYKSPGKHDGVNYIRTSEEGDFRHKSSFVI
Put plainly: yeast two hybrid interaction of Grasp55 constructs with JAM-C. Set-up: key: Symbols “+++” and “−” indicates the growth of yeast on selective media as shown in the FIGURE 13; Symbols “+++” and “−” indicates the growth of yeast on selective media as shown in the FIGURE 13. The class given is binding, murine.
Text: as §1, §2

The next data set concerns the target T8, ADAM17 (Mus musculus, UniProt Q9Z0F8, A775V/P752S).
T8 construct: expressed in transfected cells; host or cells: AH109 yeast strain
In words: yeast two hybrid interaction of Grasp55 constructs with ADAM17 C-terminal sequence. The class given is binding, murine. Set-up: key: Symbols “+++” and “−” indicates the growth of yeast on selective media as shown in the FIGURE 13; Symbols “+++” and “−” indicates the growth of yeast on selective media as shown in the FIGURE 13.
Text: as §1, §2

T8 sequence (Q9Z0F8 693-827 P752S/A775V): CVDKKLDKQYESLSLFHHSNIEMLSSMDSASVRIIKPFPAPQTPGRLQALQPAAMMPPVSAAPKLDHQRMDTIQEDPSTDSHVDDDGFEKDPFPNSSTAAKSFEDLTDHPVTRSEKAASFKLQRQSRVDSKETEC

Regarding “shGRASP55: shRNA against mouse GRASP55 in pSUPER.retro, target SEQ ID NO: 11, strands SEQ ID Nos. 12 and 13 (chain 1 CGGUUCAAGAUUAAAUAAATT; chain 2 AATTTATTTAATCTTGAACCG)”, the “quantity of soluble JAM-C in cell culture supernatant” value with B16F10 cells [1] was 0.21 ± 0.01 ng/mL. Further, the mean velocity in the data set with B16F10 cells [2] amounted to 184 ± 6 nm/min.

On to “PDZI + II: Grasp55 construct, residues 1 to 160”, for which, in the data set with JAM-B, the “interaction with JAM-B (yeast growth on selective media)” value is on record as “+++”. Also, the “interaction with JAM-A ΔPDZbm (yeast growth on selective media)” value in the data set with JAM-A ΔPDZbm is recorded as “−”. Moreover, in the data set with JAM-C ΔPDZbm, the “interaction with JAM-C ΔPDZbm (yeast growth on selective media)” value is reported as “−”. In the data set with JAM-A, the “interaction with JAM-A (yeast growth on selective media)” value is “+++”. Moreover, in the data set with JAM-B ΔPDZbm, the “interaction with JAM-B ΔPDZbm (yeast growth on selective media)” value is on record as “−”. Further, the “interaction with ADAM10 (yeast growth on selective media)” value with ADAM10 is “−”. Moreover, the “interaction with JAM-C (yeast growth on selective media)” value in the data set with JAM-C is “+++”. In addition, the “interaction with ADAM17 (yeast growth on selective media)” value in the data set with ADAM17 was “−”.

On to “PDZII: Grasp55 construct, residues 80 to 160”, for which the “interaction with JAM-B (yeast growth on selective media)” value with JAM-B is recorded as “−”. In addition, in the data set with JAM-A ΔPDZbm, the “interaction with JAM-A ΔPDZbm (yeast growth on selective media)” value is listed as “−”. Also, in the data set with JAM-C ΔPDZbm, the “interaction with JAM-C ΔPDZbm (yeast growth on selective media)” value is “−”. Further, the “interaction with JAM-A (yeast growth on selective media)” value with JAM-A was “−”. Also, the “interaction with JAM-B ΔPDZbm (yeast growth on selective media)” value in the data set with JAM-B ΔPDZbm is “−”. The “interaction with ADAM10 (yeast growth on selective media)” value in the data set with ADAM10 is “+++”. Further, in the data set with JAM-C, the “interaction with JAM-C (yeast growth on selective media)” value is “−”. In the data set with ADAM17, the “interaction with ADAM17 (yeast growth on selective media)” value is reported as “+++”.

For the substance “PDZI: Grasp55 construct, residues 1 to 79”, in the data set with JAM-B, the “interaction with JAM-B (yeast growth on selective media)” value is listed as “−”. In the data set with JAM-A ΔPDZbm, the “interaction with JAM-A ΔPDZbm (yeast growth on selective media)” value is listed as “−”. Further, the “interaction with JAM-C ΔPDZbm (yeast growth on selective media)” value with JAM-C ΔPDZbm is on record as “−”. Also, the “interaction with JAM-A (yeast growth on selective media)” value with JAM-A is listed as “−”. Moreover, in the data set with JAM-B ΔPDZbm, the “interaction with JAM-B ΔPDZbm (yeast growth on selective media)” value is reported as “−”. Moreover, the “interaction with ADAM10 (yeast growth on selective media)” value with ADAM10 is “−”. Moreover, the “interaction with JAM-C (yeast growth on selective media)” value with JAM-C was “−”. For the same substance, the “interaction with ADAM17 (yeast growth on selective media)” value with ADAM17 is given as “−”.
